Test results as given in article PMC5743843 (Protein Science : A Publication of the Protein Society, 2017).

B3: urease accessory protein UreF (natural protein)
chain: MDKGKSVKSTEKSVGMPPKTPKTDNNAHVDNEFLILQVNDAVFPIGSYTHSFGLETYIQQKKVTNKESALEYLKANLSSQFLYTEMLSLKLTYESALQQDLKKILGVEEVIMLSTSPMELRLANQKLGNRFIKTLQAMNELDMGEFFNAYAQKTKDPTHATSYGVFAASLGIELKKALRHYLYAQTSNMVINCVKSVPLSQNDGQKILLSLQSPFNQLIEKTLELDESHLCTASVQNDIKAMQHESLYSRLYMS

Columns and labels:
[1] = biological target: T1, extracellular region of Nectin-Like 2 (UniProt Q9BY67 45-374); assay: SPR
T1 sequence: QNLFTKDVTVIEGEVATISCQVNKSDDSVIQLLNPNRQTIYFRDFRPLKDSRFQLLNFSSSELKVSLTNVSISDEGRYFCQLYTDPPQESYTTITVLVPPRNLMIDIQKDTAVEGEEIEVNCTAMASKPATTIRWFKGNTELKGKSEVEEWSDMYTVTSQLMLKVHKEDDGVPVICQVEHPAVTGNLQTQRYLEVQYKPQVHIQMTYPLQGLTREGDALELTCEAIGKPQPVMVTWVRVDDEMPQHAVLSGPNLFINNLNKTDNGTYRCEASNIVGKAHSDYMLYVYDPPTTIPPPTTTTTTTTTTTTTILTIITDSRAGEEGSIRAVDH

FtsL = biological target: T2, FtsL (E. coli, UniProt P0AEN4 1-121); assay: FRET or BRET + other: single molecule photobleaching
T2 sequence: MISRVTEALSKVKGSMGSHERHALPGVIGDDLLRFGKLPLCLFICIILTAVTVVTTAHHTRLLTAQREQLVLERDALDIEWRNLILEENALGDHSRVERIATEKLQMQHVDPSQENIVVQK

[2] = biological target: T3, urease accessory protein UreH (Helicobacter pylori, UniProt Q09067 1-265); assay: crystal structure
T3 sequence: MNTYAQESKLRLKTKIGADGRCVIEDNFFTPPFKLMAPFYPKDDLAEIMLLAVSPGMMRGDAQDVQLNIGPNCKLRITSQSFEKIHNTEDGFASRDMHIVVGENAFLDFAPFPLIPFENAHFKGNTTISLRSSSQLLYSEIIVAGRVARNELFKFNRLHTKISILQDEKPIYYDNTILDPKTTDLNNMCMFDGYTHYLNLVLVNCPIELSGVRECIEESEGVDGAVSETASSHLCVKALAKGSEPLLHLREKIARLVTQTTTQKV

crystal structure = biological target: the molecule itself; assay: crystal structure
[3] = biological target: B3; assay: crystal structure

B1: extracellular region of CRTAM (domain or fragment)
chain: SLTNHTETITVEEGQTLTLKCVTSLRKNSSLQWLTPSGFTIFLNEYPALKNSKYQLLHHSANQLSITVPNVTLQDEGVYKCLHYSDSVSTKEVKVIVLATPFKPILEASVIRKQNGEEHVVLMCSTMRSKPPPQITWLLGNSMEVSGGTLHEFETDGKKCNTTSTLIIHTYGKNSTVDCIIRHRGLQGRKLVAPFRFEDLVTDEETASDALERNSLSSQDPQQPTSTVSVTEDSSTSEIDKEEKEQTTQDPDLTTEANPQYLGLARKKSG
- Kd [1]: 37.2 nM

B2: FtsB (natural protein)
chain: MGKLTLLLLAILVWLQYSLWFGKNGIHDYTRVNDDVAAQQATNAKLKARNDQLFAEIDDLNGGQEALEERARNELSMTRPGETFYRLVPDASKRAQSAGQNNR
- stoichiometry N (FtsL): 1 FtsB per FtsL

Binder: B3
- binding result [2]: binds
- binding result (crystal structure): binds

B4: urease accessory protein UreG (enzyme)
chain: MVKIGVCGPVGSGKTALIEALTRHMSKDYDMAVITNDIYTKEDAEFMCKNSVMPRERIIGVETGGCPHTAIREDASMNLEAVEEMHGRFPNLELLLIESGGDNLSATFNPELADFTIFVIDVAEGDKIPRKGGPGITRSDLLVINKIDLAPYVGADLKVMERDSKKMRGEKPFIFTNIRAKEGLDDVIAWIKRNALLED
- binding result [3]: binds
